The results in this text go back to the supplement of paper PMC10065799, “High-throughput profiling of sequence recognition by tyrosine kinases and SH2 domains using bacterial peptide display” (eLife, 2023).

One series addresses c-Src SH2. Nature of the series: SH2 binding enrichment of the phosphorylated peptide, bacterial display (enrichment ratio); higher = better substrate or ligand; peptides without Tyr show the background.
A further series deals with SHP2-C SH2. Described as above.
A further series concerns the target Grb2 SH2 (UniProt P62993). The series is described as above.
The target in the next series is FGFR1 (UniProt P11362). Nature of the series: phosphorylation enrichment, bacterial display (enrichment ratio); higher = better substrate or ligand; peptides without Tyr show the background.
For the next series, the target named is Jak2 (UniProt O60674). Described as above.
The target of another series is EPHB2 (UniProt P29323). Described as above.
For a further series, the system named is c-Abl (mouse). The series is described as above.
The target in the next series is MERTK (UniProt Q12866). The series is described as above.
A further series deals with FGFR3 (UniProt P22607). The description is as above.
The next series deals with AncSZ. The description is as above.
In another series the target is Hck (UniProt P08631). The series is described as above.
The next series concerns the target Fes (UniProt P07332). The series is described as above.
A further series concerns the target EPHB1 (UniProt P54762). The series is described as above.
The next series deals with Fyn (UniProt P06241). Described as above.
The subject of another series is c-Src. Described as above.
The test system of a further series is Fer (mouse). The description is as above.
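Wherever SH2 binding enrichment of the phosphorylated peptide, bacterial display is given: peptide library displayed on the E. coli surface as eCPX fusions, selected cells deep-sequenced, score is each peptide's frequency after selection divided by its frequency in the input.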
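Wherever phosphorylation enrichment, bacterial display is given: 11-residue human phosphosite peptides and single-mutation variants displayed on the E. coli surface, counted by deep sequencing, each peptide's frequency after selection divided by its frequency in the unselected input library; frequency after pTyr selection over input frequency; kinase dosed for 20-30% of maximal phosphorylation in three min.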

Chain of MERTK (Q12866 whole entry, looked up): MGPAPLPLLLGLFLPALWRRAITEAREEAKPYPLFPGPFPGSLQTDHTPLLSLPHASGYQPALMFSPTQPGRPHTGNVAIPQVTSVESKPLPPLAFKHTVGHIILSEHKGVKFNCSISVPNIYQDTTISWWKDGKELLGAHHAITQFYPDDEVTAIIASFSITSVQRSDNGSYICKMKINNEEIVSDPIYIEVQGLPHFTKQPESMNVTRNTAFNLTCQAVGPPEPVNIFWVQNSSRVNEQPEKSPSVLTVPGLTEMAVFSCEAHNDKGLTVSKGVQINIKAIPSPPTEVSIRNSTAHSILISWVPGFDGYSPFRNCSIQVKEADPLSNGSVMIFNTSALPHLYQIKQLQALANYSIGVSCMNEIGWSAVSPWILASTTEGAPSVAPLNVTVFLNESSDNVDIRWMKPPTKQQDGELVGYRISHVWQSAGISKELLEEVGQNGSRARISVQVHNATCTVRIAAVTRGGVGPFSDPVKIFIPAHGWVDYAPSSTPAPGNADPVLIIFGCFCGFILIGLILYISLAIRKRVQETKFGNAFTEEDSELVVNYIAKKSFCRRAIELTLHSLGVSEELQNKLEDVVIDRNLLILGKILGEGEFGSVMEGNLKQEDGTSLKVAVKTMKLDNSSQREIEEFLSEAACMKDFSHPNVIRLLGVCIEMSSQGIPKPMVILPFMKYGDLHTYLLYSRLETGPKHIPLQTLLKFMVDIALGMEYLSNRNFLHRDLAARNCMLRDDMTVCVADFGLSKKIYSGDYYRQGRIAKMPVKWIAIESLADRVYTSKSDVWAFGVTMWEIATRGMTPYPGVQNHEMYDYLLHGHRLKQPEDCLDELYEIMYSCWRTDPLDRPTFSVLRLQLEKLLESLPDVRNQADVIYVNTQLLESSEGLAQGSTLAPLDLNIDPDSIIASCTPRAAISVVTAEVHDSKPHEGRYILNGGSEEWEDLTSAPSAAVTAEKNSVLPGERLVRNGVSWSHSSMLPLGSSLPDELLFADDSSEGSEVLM
Chain of EPHB2 (P29323 whole entry, looked up): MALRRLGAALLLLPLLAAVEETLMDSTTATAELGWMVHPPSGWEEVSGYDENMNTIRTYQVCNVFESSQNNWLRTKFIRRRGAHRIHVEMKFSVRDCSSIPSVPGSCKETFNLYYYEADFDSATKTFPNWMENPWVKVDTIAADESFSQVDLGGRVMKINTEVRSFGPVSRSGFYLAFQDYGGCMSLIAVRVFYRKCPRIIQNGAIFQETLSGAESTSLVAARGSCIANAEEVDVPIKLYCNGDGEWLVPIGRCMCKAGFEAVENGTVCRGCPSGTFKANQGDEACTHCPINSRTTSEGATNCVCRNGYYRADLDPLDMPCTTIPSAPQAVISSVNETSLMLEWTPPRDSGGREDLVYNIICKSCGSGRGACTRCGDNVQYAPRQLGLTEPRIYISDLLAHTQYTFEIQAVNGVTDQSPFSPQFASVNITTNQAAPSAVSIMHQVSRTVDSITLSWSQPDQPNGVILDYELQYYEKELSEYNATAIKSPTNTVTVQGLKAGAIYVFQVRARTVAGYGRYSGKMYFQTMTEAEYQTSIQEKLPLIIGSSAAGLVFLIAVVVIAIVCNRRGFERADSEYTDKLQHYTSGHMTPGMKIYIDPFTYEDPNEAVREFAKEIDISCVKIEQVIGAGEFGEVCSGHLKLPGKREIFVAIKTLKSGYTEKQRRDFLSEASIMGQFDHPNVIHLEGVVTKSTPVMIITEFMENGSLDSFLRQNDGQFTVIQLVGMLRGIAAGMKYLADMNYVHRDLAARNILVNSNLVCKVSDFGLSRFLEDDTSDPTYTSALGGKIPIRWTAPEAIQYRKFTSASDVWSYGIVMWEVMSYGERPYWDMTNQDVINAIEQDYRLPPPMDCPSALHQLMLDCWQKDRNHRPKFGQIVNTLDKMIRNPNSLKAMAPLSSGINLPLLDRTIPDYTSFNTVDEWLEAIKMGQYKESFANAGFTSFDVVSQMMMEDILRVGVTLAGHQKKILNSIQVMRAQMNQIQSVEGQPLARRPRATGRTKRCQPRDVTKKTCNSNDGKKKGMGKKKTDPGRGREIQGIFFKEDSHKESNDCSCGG
Chain of Hck (P08631 whole entry, looked up): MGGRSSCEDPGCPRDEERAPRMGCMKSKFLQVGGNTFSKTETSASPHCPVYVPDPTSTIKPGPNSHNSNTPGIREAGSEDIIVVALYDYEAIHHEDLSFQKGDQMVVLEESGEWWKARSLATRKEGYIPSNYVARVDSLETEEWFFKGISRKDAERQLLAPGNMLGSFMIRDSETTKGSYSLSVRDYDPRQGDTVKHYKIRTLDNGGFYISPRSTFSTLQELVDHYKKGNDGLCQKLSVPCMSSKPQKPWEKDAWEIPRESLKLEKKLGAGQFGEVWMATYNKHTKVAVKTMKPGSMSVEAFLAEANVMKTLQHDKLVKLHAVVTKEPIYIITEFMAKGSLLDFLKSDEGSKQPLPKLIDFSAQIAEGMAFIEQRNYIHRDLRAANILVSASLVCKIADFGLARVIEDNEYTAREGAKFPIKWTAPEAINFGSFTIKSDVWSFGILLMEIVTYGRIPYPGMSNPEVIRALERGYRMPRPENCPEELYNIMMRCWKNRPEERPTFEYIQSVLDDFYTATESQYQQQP
Chain of Fyn (P06241 whole entry, looked up): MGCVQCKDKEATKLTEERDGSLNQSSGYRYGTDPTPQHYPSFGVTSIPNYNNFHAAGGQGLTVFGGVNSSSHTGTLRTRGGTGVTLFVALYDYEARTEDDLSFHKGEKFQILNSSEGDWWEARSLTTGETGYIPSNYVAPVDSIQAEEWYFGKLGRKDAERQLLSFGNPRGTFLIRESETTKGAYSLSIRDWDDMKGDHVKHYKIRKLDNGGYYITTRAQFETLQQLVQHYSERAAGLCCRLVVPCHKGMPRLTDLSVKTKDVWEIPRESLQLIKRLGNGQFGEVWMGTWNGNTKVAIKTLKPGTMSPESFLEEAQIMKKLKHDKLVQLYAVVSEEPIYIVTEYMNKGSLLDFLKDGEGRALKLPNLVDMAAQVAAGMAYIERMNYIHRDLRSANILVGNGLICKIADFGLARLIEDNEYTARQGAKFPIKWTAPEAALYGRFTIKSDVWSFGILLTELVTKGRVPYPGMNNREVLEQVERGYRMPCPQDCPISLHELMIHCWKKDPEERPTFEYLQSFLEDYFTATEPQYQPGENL
Chain of Jak2 (O60674 whole entry, looked up): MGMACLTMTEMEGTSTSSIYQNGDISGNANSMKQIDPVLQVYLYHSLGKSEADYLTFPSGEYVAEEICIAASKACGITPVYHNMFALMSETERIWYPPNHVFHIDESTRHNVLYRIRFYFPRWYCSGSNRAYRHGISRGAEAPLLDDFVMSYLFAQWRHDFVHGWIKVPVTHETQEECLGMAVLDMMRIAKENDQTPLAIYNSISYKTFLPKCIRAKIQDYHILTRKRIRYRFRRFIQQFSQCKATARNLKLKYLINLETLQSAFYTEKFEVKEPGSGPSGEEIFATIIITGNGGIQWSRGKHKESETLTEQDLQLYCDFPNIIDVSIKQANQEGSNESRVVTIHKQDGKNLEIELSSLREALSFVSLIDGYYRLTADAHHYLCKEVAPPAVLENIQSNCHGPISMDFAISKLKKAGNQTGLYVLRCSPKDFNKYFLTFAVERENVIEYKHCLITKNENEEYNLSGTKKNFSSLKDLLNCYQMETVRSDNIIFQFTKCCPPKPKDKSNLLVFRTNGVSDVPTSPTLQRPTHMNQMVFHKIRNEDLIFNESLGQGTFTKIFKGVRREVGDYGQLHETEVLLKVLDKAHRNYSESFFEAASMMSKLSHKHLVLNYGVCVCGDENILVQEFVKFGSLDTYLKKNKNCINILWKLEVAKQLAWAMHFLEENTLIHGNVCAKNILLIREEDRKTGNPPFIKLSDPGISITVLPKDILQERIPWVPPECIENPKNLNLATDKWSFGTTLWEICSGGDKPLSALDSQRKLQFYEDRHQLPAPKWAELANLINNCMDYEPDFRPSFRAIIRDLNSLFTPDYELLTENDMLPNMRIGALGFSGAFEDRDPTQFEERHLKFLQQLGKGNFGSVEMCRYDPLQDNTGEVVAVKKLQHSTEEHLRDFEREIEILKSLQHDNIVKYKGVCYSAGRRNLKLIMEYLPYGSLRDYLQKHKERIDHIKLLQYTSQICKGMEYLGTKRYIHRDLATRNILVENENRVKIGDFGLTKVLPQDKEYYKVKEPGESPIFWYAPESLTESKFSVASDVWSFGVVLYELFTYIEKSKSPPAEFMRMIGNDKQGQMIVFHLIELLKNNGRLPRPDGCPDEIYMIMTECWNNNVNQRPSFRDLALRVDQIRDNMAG
Chain of FGFR3 (P22607 whole entry, looked up): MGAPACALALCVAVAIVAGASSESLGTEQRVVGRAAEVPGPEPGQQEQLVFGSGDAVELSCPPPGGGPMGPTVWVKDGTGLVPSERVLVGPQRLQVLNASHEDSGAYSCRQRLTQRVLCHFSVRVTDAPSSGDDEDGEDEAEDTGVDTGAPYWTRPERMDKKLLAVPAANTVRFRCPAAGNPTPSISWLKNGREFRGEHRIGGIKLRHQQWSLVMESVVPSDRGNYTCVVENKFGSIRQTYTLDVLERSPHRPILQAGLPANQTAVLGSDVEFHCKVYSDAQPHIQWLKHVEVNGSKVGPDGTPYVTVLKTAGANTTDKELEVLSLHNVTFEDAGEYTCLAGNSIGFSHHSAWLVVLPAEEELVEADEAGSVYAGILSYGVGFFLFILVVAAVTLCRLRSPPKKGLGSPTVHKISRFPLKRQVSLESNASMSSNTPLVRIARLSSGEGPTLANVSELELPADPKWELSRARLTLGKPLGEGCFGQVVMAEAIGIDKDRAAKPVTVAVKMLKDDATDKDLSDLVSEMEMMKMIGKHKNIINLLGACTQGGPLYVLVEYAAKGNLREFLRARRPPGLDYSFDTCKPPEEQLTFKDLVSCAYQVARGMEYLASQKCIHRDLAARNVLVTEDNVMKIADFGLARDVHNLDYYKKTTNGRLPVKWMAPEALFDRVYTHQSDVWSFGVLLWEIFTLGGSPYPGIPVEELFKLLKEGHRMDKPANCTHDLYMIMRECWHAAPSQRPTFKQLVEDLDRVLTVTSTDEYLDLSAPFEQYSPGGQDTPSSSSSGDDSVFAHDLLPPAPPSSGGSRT

Regarding AHLTEYLSTHF [UQCRC1_Y219_D215H_YF], the SH2 binding enrichment with c-Src SH2 is 0.412; with SHP2-C SH2, 0.809; in the series with Grb2 SH2, 0.811. Besides, the phosphorylation enrichment with FGFR1 came out at 0.529; in the series with Jak2 it was 0.837; with EPHB2, 0.499; with c-Abl (mouse) it was 0.676; in the series with MERTK it was 0.408; in the series with FGFR3, 0.577. Besides, the phosphorylation enrichment in the series on AncSZ amounted to 0.902; with Hck, 0.526; with Fes, 0.915; with EPHB1, 0.471; in the series with Fyn, 0.471; in the series with c-Src it was 0.525. Further, the phosphorylation enrichment in the series on Fer (mouse) is 0.44.
In the case of AIIGIYILRDD [CDH23_Y2949], the SH2 binding enrichment with c-Src SH2 was determined as 1.04; in the series with SHP2-C SH2, 1.11; with Grb2 SH2, 1.47. The phosphorylation enrichment with FGFR1 was found to be 0.484; in the series with Jak2 it was 1.35; in the series with EPHB2, 0.788; in the series with c-Abl (mouse), 0.965; with MERTK it was 0.546; with FGFR3, 0.753. In addition, the phosphorylation enrichment in the series on AncSZ is 1.24; with Hck, 0.951; with Fes, 1.5; with EPHB1, 0.831; in the series with Fyn, 1.18; with c-Src, 2.76. For the same sequence, in the series with Fer (mouse), the phosphorylation enrichment turned out to be 0.676.
Consider AIMSFYATLID [RYR1_Y2426_A2428T], for which the SH2 binding enrichment with c-Src SH2 was 0.541; with SHP2-C SH2, 0.673; in the series with Grb2 SH2, 0.869. The phosphorylation enrichment with FGFR1 turned out to be 0.601; in the series with Jak2 it was 1.83; with EPHB2, 0.836; in the series on c-Abl (mouse) it was 1.07; in the series with MERTK it was 0.59; with FGFR3, 1.09. The phosphorylation enrichment in the series on AncSZ was determined as 1.31; with Hck, 0.585; with Fes, 1.51; with EPHB1, 1.05; with Fyn it was 0.508; in the series on c-Src, 0.486. Besides, in the series with Fer (mouse), the phosphorylation enrichment came out at 0.791.
AIYRRYSKFFD [SH3PXD2B_Y45]: the SH2 binding enrichment with c-Src SH2 came out at 0.511; with SHP2-C SH2 it was 0.495; with Grb2 SH2 it was 0.674. In addition, the phosphorylation enrichment with FGFR1 came to 0.509; with Jak2, 0.83; with EPHB2, 0.568; in the series with c-Abl (mouse) it was 0.783; in the series with MERTK it was 0.596; with FGFR3 it was 0.555. The phosphorylation enrichment worked out at 0.989 in the series with AncSZ; 0.594 in the series with Hck; 1.03 with Fes; 0.603 with EPHB1; 0.485 in the series with Fyn; 0.636 with c-Src. Also, the phosphorylation enrichment with Fer (mouse) was determined as 0.383.
In the case of AKKVFYVNETR [SHH_Y253_I255N], the values for the SH2 binding enrichment with c-Src SH2, with SHP2-C SH2 and with Grb2 SH2 were 0.743, 0.814 and 4.17, respectively. For the same sequence, the phosphorylation enrichment in the series with FGFR1 amounted to 0.42; in the series with Jak2, 0.526; with EPHB2, 0.448; in the series with c-Abl (mouse) it was 0.459; with MERTK it was 0.363; with FGFR3, 0.494. Also, the phosphorylation enrichment in the series on AncSZ came to 0.576; with Hck it was 0.338; in the series with Fes, 0.737; in the series with EPHB1, 0.594; in the series with Fyn it was 0.307; in the series on c-Src, 0.319. Further, the phosphorylation enrichment with Fer (mouse) amounted to 0.338.
As for AKNKDYMSFIR [GNE_Y197_I200F], the values for the SH2 binding enrichment with c-Src SH2, with SHP2-C SH2 and with Grb2 SH2 were 0.754, 1.23 and 1.09, respectively. Moreover, the phosphorylation enrichment with FGFR1 came to 0.478; with Jak2, 0.647; with EPHB2, 0.648; in the series on c-Abl (mouse), 0.661; with MERTK it was 0.465; in the series with FGFR3 it was 0.478. In addition, the phosphorylation enrichment with AncSZ was 0.606; in the series with Hck it was 0.946; with Fes, 0.646; in the series with EPHB1, 0.812; in the series with Fyn, 0.61; in the series with c-Src, 0.972. Besides, the phosphorylation enrichment in the series on Fer (mouse) is 0.34.
As for ALAAPYVLFPS [CEFIP_Y1332_G1337S_YF], the SH2 binding enrichment in the series with c-Src SH2 was 4.34; with SHP2-C SH2 it was 0.816; with Grb2 SH2 it was 0.968. Further, the phosphorylation enrichment stood at 2.56 with FGFR1; 1.63 with Jak2; 0.502 in the series with EPHB2; 0.682 with c-Abl (mouse); 2.01 with MERTK; 1.83 with FGFR3. Also, the phosphorylation enrichment in the series with AncSZ turned out to be 0.675; in the series with Hck, 0.647; with Fes it was 0.822; with EPHB1 it was 0.76; in the series with Fyn, 0.578; in the series with c-Src, 5. Besides, the phosphorylation enrichment with Fer (mouse) came to 0.504.
As for ALAAPYVLYPG [CEFIP_Y1332], the SH2 binding enrichment with c-Src SH2 was 0.7; in the series with SHP2-C SH2, 0.602; with Grb2 SH2 it was 0.747. In addition, the phosphorylation enrichment with FGFR1 came to 3.98; with Jak2, 0.845; with EPHB2 it was 0.488; with c-Abl (mouse), 0.569; in the series with MERTK it was 0.597; in the series with FGFR3, 2.55. Also, the phosphorylation enrichment with AncSZ was determined as 0.769; in the series with Hck it was 0.794; in the series with Fes, 0.799; with EPHB1, 0.565; with Fyn, 0.694; with c-Src it was 4.26. Moreover, the phosphorylation enrichment in the series with Fer (mouse) was found to be 0.54.
